Source: patent publication US20220194997A1, “SUMO PEPTIDES FOR TREATING NEURODEGENERATIVE DISEASES” (The Chinese University of Hong Kong, priority 2019, published 2022)

Molecular target: SUMO1(15-55) (human)
Assay: MST (FIG. 11b)

Sequence of SUMO1(15-55) (human) (peptide, as listed by the source limits assumed): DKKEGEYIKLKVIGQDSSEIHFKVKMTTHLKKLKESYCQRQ

**Q.** αsyn(33-58) (peptide) was tested. Which binding ability relative to the sole β1, β2-strand peptides (fold of the sole β1, β2-strand peptides) did it give?
**A.** 0.037
